One block for each molecule: values may come before it.
Experiments:
[1] = biological target: T1, human CCR1 (C-C chemokine receptor-1) (human, UniProt P32246 1-355); test: cell-based or functional assay
T1 sequence (looked up): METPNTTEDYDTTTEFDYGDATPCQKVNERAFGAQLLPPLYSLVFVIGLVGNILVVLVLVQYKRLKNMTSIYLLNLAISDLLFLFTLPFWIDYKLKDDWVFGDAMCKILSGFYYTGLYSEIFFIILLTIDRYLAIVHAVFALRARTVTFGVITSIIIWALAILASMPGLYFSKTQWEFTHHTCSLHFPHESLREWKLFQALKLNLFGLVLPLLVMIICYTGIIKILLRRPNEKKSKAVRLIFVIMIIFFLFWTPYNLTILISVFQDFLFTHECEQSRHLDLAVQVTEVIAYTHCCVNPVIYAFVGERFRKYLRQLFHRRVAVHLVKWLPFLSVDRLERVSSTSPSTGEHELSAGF

[2] = biological target: T2, human FPRL1 (formyl peptide receptor like 1) (human, UniProt P25090 1-351); test: cell-based or functional assay
T2 sequence (looked up): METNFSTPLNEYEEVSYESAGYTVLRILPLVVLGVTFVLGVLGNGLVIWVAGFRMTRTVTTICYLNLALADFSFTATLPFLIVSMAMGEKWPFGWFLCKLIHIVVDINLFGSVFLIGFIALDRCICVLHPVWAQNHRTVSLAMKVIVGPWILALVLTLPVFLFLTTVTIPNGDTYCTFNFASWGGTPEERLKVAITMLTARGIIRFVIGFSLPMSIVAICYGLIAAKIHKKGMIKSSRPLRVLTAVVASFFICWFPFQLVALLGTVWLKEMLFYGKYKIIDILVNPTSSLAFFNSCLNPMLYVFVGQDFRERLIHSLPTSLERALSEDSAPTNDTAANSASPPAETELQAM

[3] = biological target: T1, human CCR1 (C-C chemokine receptor-1); test: competition with 125I-MIP-1α on L1.2-CCR1 cells
Experimental: (§1) Binding assay. Competition binding studies were conducted using monocytes, L1.2-CCR1 or L1.2-FPRL1 cells. […] Reactions were aspirated onto PEI-treated GF/B glass filters using a cell harvester (Packard). Filters were washed twice (25 mM HEPES, 500 mM NaCl, 1 mM CaCl₂, 5 mM MgCl₂, adjusted to pH 7.1). Scintillant (MicroScint-10; 35 μl) was added to the filters and counted in a Packard Topcount scintillation counter. Data were analyzed and plotted using Prism (GraphPad Software, San Diego, Calif.).

[4] = biological target: T2, human FPRL1 (formyl peptide receptor …); test: competition with 125I-WKYMVm on human monocytes, filter binding
Experimental: as §1

[5] = biological target: T2, human FPRL1 (formyl peptide receptor …); test: competition with 125I-WKYMVm on L1.2-FPRL1 cells, filter binding
Experimental: as §1

[6] = biological target: T1, human CCR1 (C-C chemokine receptor-1); test: competition with 125I-MIP-1α on human monocytes
[7] = biological target: T1, human CCR1 (C-C chemokine receptor-1); test: competition with 125I-MIP-1α on L1.2-CCR1 cells, 3 hr at 4° C., filter binding
Experimental: as §1

[8] = biological target: T1, human CCR1 (C-C chemokine receptor-1); test: competition with 125I-MIP-1α on human monocytes, 3 hr at 4° C., filter binding
Experimental: as §1

Molecule: CCL5/RANTES (from UniProt P13501 24-91) (ligand)
EC50, THP-1 cell migration [1]: 500 pM | fold decrease in potency in THP-1 cell chemotaxis relative to CCL15Δ24/LKN-1 [1]: 3 fold

Molecule: MLWRRKIGPQMT [CCXP5]
potency for receptor signaling in L1.2-FPRL1 cells, relative to SHAAGtide [2]: 3 fold

B3: CCL15/MIP-1δ (92aa) (ligand)
chain: QFINDAETELMMSKLPLENPVVLNSFHFAADCCTSYISQSIPCSLMKSYFETSSECSKPGVIFLTKKGRQVCAKPSGPGVQDCMKKLKPYSI
EC50, THP-1 cell chemotaxis [1]: 50000 pM

B4: CCL15/MIP-1δ digested with PMN sup #1 (ligand)
chain: VLNSFHFAADCCTSYISQSIPCSLMKSYFETSSECSKPGVIFLTKKGRQVCAKPSGPGVQDCMKKLKPYSI
EC50, THP-1 cell chemotaxis [1]: 250 pM

B6: CCL23β (ligand)
chain: RVTKDAETEFMMSKLPLENPVLLDMLWRRKIGPQMTLSHAAGFHATSADCCISYTPRSIPCSLLESYFETNSECSKPGVIFLTKKGRRFCANPSDKQVQVCMRMLKLDTRIKTRKN
notes: 116-residue alternatively spliced form; recombinant, special order from R&D Systems; also called CKβ8-1
binding result [6]: binds

B11: CCL15/MIP-1δ digested with chymase (ligand)
chain: AADCCTSYISQSIPCSLMKSYFETSSECSKPGVIFLTKKGRQVCAKPSGPGVQDCMKKLKPYSI
EC50, THP-1 cell chemotaxis [1]: 50 pM | fold increase of potency in THP-1 cell migration over full-length CCL15/MIP-1δ [1]: 1000 fold

B12: CCL3/MIP-1α (ligand, UniProt P10147 27-92, looked up)
chain: ADTPTACCFSYTSRQIPQNFIADYFETSSQCSKPGVIFLTKRSRQVCADPSEEWVQKYVSDLELSA
modifications: also: 125I-labelled when used as tracer
IC50 [7]: 0.15 nM | EC50, THP-1 cell migration [1]: 500 pM | fold decrease in potency in THP-1 cell chemotaxis relative to CCL15Δ24/LKN-1 [1]: ~3 fold | IC50 [8]: 0.3 nM

Next, values leading:

EC50, THP-1 cell chemotaxis [1]: 50 pM | fold decrease of EC50 against undigested CCL23/CKβ8, THP-1 cell chemotaxis [1]: 50 fold
B1: CCL23/CKβ8 digested with chymase (ligand)
chain: HATSADCCISYTPRSIPCSLLESYFETNSECSKPGVIFLTKKGRRFCANPSDKQVQVCMRMLKLDTRIKTRKN

binding result [3]: no binding | EC50 in functional assays [2]: 10 to 30 nM | IC50 [4]: 10 nM | IC50 [5]: 280 nM
B2: SHAAGtide (MLWRRKIGPQMTLSHAAG) (peptide)
peptide: MLWRRKIGPQMTLSHAAG
notes: Synthetic 18-residue peptide; also called CCXP1; SHAAGtide peptide

EC50, THP-1 cell chemotaxis [1]: 60 pM
B5: CCL15Δ24/LKN-1 (68aa) (ligand)
chain: SFHFAADCCTSYISQSIPCSLMKSYFETSSECSKPGVIFLTKKGRQVCAKPSGPGVQDCMKKLKPYSI

fold decrease in potency for receptor signaling in L1.2-FPRL1 cells, relative to SHAAGtide [2]: ~10 fold
Molecule: LWRRKIGPQMTLSHAAG [SHAAGtide lacking the N-terminal amino acid (Met)]

EC50, THP-1 cell chemotaxis [1]: 90 pM | fold increase in binding activity over full-length CCL23α [6]: > 10 fold
B7: CCL23α Δ24 (CCL23Δ24/MPIF-1, 46-120) (ligand)
chain: RFHATSADCCISYTPRSIPCSLLESYFETNSECSKPGVIFLTKKGRRFCANPSDKQVQVCMRMLKLDTRIKTRKN
notes: Recombinant CCL23/CKβ8 lacking the N-terminal 24 residues

IC50 [7]: 20 nM | fold increase in binding activity over full-length CCL23β [6]: > 10 fold | IC50 [4]: 35 nM | IC50 [8]: 4.5 nM | IC50 [5]: 210 nM
B8: CCL23β Δ24 (ligand)
chain: MLWRRKIGPQMTLSHAAGFHATSADCCISYTPRSIPCSLLESYFETNSECSKPGVIFLTKKGRRFCANPSDKQVQVCMRMLKLDTRIKTRKN
notes: Begins with the 18-residue SHAAGtide insertion; R&D Systems catalog item; also called CCLβΔ24

EC50, THP-1 cell chemotaxis [1]: 2500 pM
B9: CCL23α (CCL23/CKβ8, 22-120) (ligand)
chain: RVTKDAETEFMMSKLPLENPVLLDRFHATSADCCISYTPRSIPCSLLESYFETNSECSKPGVIFLTKKGRRFCANPSDKQVQVCMRMLKLDTRIKTRKN

EC50, THP-1 cell chemotaxis [1]: 150 pM
B10: CCL23/CKβ8 digested with PMN sup #1 (ligand)
chain: LLDRFHATSADCCISYTPRSIPCSLLESYFETNSECSKPGVIFLTKKGRRFCANPSDKQVQVCMRMLKLDTRIKTRKN

— patent US20060063223A1 (CHEMOCENTRYX, published 2006)
